In US20090075291A1 (RESEARCH FOUNDATION OF STATE UNIVERSITY OF NEW YORK, published 2009):

Key:
[1] = biological target: T1, Recombinant Cx43CT (carboxyl terminal domain of rat connexin43, residues 255-382, preceded by GPLG) (rat, UniProt P08050 255-382); experiment: SPR, Cx43CT immobilized on carboxymethyl dextran
T1 construct: range 255-382; Made in E. coli as a GST fusion (pGEX-6P-2) and cleaved from GST; the protein used was derived from rat cDNA; 15N-labeled for NMR; also called recombinant CT; 15N-Cx43CT
Description: Recombinant Cx43CT was covalently bound to a carboxylmethyl dextran matrix (Salamon et al., “Surface Plasmon Resonance Spectroscopy as a Tool for Investigating the Biochemical and Biophysical Properties of Membrane Protein Systems. II: Applications to Biological Systems,” Biochim. Biophys. Acta 1331(2):131-152 (1997), which is hereby incorporated by reference in its entirety). Specific peptides were presented and, when feasible, dissociation constants (KD) were calculated from the time course of binding and unbinding of the ligand, using a 1:1 (Langmuir) association and dissociation kinetic model (Biacore software package). In both phases (association and dissociation), the first 5-8 seconds of recording were not included in the fit, to avoid artifacts resulting from peptide distribution within the flow cells (Lang et al., “Surface Plasmon Resonance as a Method to Study the Kinetics and Amplitude of Protein-protein Binding,” in PRACTICAL METHODS IN CARDIOVASCULAR […] 936-947 (Stefan Dhein, Friedrich Wilhelm Mohr & Mario Delmar eds., 2005), which is hereby incorporated by reference in its entirety).
Phage display allows for the rapid screening of thousands of peptides, but the characteristics of binding cannot be properly defined. Furthermore, the peptides are part of a capsid protein, which may affect the ability of the peptide to properly interact with the target protein. Therefore, some of the peptides identified by the phage screening were selected to, using SPR, further characterize their ability to bind Cx43CT. Recombinant Cx43CT was covalently bound to a carboxymethyl dextran matrix and synthetic peptides presented for binding. A total of six 12-mer peptides from the non-biased screening (peptides labeled RXP1 to RXP6 in Table 1) and 5 peptides from the biased screening (labeled RXP-A to RXP-E in Table 3) were tested. […] Peptide RXP4 (SEQ ID NO:15) caused the largest deflection in SPR signal. RXP4 (250 μM) was added at time “zero.” Washout was initiated after two minutes of exposure.

[2] = biological target: T1, Recombinant Cx43CT (carboxyl terminal …); experiment: SPR, Cx43CT immobilized, 1:1 Langmuir kinetic fit, pH 6.5 and 7.4
Description: A total of six 12-mer peptides from the non-biased screening (peptides labeled RXP1 to RXP6 in Table 1) and 5 peptides from the biased screening (labeled RXP-A to RXP-E in Table 3) were tested. […] Peptide RXP4 (SEQ ID NO:15) caused the largest deflection in SPR signal. RXP4 (250 μM) was added at time “zero.” Washout was initiated after two minutes of exposure. […] Higher concentrations of the peptide were tested but an asymptotic maximum response could not be detected. In addition, dissociation rates were too fast to reliably use them to calculate the kinetics of binding.
A different result emerged from the testing of the doublets. […] In contrast, peptide RXP-E (SEQ ID NO:10) generated a large, concentration-dependent deflection followed by a slow dissociation upon washout, as shown in FIG. 3B. The transitions were well-fit by exponential functions and the rates of association and dissociation were used as described in Example 4 to estimate the kinetic parameters. A full range of concentrations was tested in three separate occasions and at two different pHs of the solvent (6.5 and 7.4). No differences were observed as a function of pH.

[3] = biological target: Cx43 expressed in N2a cells (Cx43 gap junction channels); experiment: cell-based or functional assay
[4] = biological target: T2, Cx43 from rat heart lysate (rat, UniProt P08050 2-382); experiment: Cx43 pulldown assay, percent binding relative to RXPE; Example 19 does not state the source of Cx43
T2 construct: Native protein pulled down from a tissue lysate; also called cardiac Cx43

[5] = biological target: T1, Recombinant Cx43CT (carboxyl terminal …); experiment: SPR, peptide 1.0 mM

T2 sequence (P08050 2-382 limits assumed): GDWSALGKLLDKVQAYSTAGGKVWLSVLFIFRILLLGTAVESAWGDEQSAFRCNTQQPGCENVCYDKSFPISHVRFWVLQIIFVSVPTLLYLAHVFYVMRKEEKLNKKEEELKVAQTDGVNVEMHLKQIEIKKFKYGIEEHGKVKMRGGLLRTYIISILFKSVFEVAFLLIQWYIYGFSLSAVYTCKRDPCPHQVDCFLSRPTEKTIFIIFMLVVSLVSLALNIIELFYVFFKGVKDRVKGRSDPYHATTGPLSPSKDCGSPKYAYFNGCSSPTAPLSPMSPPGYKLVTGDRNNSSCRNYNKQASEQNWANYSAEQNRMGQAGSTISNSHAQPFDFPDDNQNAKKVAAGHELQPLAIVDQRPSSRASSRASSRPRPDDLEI
T1 sequence (P08050 other isoform, or with tags, fused parts or gaps limits assumed): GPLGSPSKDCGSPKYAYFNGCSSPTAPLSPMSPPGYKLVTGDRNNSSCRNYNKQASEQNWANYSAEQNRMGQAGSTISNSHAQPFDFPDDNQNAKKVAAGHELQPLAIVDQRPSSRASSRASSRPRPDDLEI

B1: RXP-D (peptide)
peptide: WEEPRRPFTMSGGGSAETHARVPFYSHSPMRHRLPGVHL
notes: Synthetic doublet peptide from the biased phage display screen
- binding result [1]: no binding

B2: RXP-A (peptide)
peptide: DVPGRDPGYIKGGGSAHARVPFYSHSLNRNRKPSLYQ
notes: as for B1
- binding result [1]: no binding

B3: RXP-E (peptide)
peptide: SDDLRSPQLHNGGGSAVPFYSHSHMVRRKPRNPR
notes: as for B1
- Kd [2]: 3.9 µM
- junctional conductance (Gj) relative to control at pipette pH 6.2 (acidification-induced uncoupling) [3]: 57 % of control
- junctional conductance (Gj) relative to control during octanol superfusion [3]: 57.6 % of control

Binder: SDDLASAQLHNGGGSAVPFYSHSHMVRRKAANPR (also called RXPE mutant (5,7,30,31A)) [31]
- binding result [4]: no binding

Binder: SDDLASAQLHNGGGSAVPFYSHSHMVRRKPANAR (also called RXPE mutant (5,7,31,33pa)) [58]
- binding result [4]: no binding

Binder: SDDLRSPQLHNGGGSAVPFYSHSHMVRRKPANAR (also called RXPE mutant (31,33A)) [29]
- binding result [4]: no binding

B4: RXP-B (peptide)
peptide: EIQPRSPLMFSGGGSAHARVPFYSHSAKEARWPRAHR
notes: as for B1
- binding result [1]: no binding

Binder: Ac-RRKP-NH2 [Peptide 2504, AcRRKP-NH2]
- Response Dose [5]: 46.5 arbitrary units

Binder: Ac-RRNP-NH2 [Peptide 2505, AcRRNP-NH2]
- Response Dose [5]: 34.9 arbitrary units

Binder: Ac-RRKPRRKP-NH2 [Peptide 2503, AcRRKPRRKP-NH2]
- Response Dose [5]: 295 arbitrary units

Binder: Ac-RNPRNP-NH2 [Peptide 2501, AcRNPRNP-NH2]
- Response Dose [5]: 24.8 arbitrary units

B5: RXP-C (peptide)
peptide: GIAAREPNSHDGGGSAHARVPFYSHSRDLWRKPAKSL
notes: as for B1
- binding result [1]: no binding
